The record followed here is patent US6436666.

Several values for one entry are separate records, joined by “and”; a condition that tells them apart may be missing. Equal entries are not always repeated.

In data set [1] the target is Substrate: protein A-G-G-G-G-7aa-NS4B/5A cleavage site-8aa-FLAG-G-FLAG-G-FLAG (Example 6) (hepatitis C virus). Nature of the data set: time-resolved fluorometry: 20 nM substrate captured on IgG coated Immulon-4 plate, detected with Eu^3+-anti-FLAG MoAb.
The target of data set [2] is pro A-NS5 target polypeptide of Examples 3 and 4 (protein A anchor region, linker, protease target site of HCV NS5A/5B, linker, FLAG epitope tag region) (hepatitis C virus). Nature of the data set: ELISA: pro A-NS5 on human IgG plate, no protease, anti-FLAG then goat anti-mouse conjugate. A general note: ELISA stands for enzyme-linked immunosorbent assay.
For data set [3], the target named is pro A-NS5, polypeptide substrate of HCV protease (Example 1 construct: Protein A - NS5A/5B protease target site - three FLAG tags) (hepatitis C virus). Nature of the data set: ELISA: pro A-NS5 on IgG plate, no protease, anti-FLAG then goat anti-mouse-HRP; Exp. 1.
The target is the same in data set [4]. Nature of the data set: ELISA: pro A-NS5 on IgG plate, no protease, anti-FLAG then goat anti-mouse-HRP; Exp. 2.
Data set [5] shares this target. Put plainly: ELISA: proA-NS5 2 µg/ml captured on IgG plate, no protease, anti-FLAG then goat anti-mouse-HRP, OPD.
Data set [6] has the same target. Put plainly: ELISA: pro A-NS5 10 µg/ml captured on IgG plate, no protease, anti-FLAG then goat anti-mouse-HRP, OPD.
In data set [7] the target is Peptide 4A, a co-factor of the NS3 HCV protease (Example 2).

As for “Eu^3+-anti-FLAG MoAb (Sigma via Kodak, cat#IB13026, lot# 710413) (antibody)”, the Eu^3+ counts in data set [1] was 1.31e+06 Eu^3+ counts and 1.26e+06 Eu^3+ counts.

Take “Mouse monoclonal anti-FLAG M2 (IBI, IBI13010/6j0612) (antibody)”: the OD w/o DMSO in data set [2] was 2.6 OD.

As for “monoclonal anti-FLAG mouse antibody (available from Kodak)”, the OD came to 1.23 OD in data set [3], 0.93 OD in data set [4], 0.77 OD in data set [5] and 1.21 OD in data set [6].

B1: protease 1: Ni-13 (F21) 20 µM, preparation made at Chiron (protein)
chain: APITAYAQQTRGLLGCIITSLTGRDKNQVEGEVQIVSTAAQTFLATCINGVCWTVYHGAGTRTIASPKGPVIQMYTNVDQDLVGWPAPQGSRSLTPCTCGSSDLYLVTRHADVIPVRRRGDSRGSLLSPRPISYLKGSSGGPLLCPAGHAVGIFRAAVCTRGVAKAVDFIPVENLETTMRS
In the case of B1, the “cleavage of the NS4B/5A substrate by the protease with and without the co-factor peptide” value in data set [7] is recorded as “These data demonstrates the operability of the screening assay using HCV NS4B/5A protease cleavage site with co-factor peptide 4A”.
